The results in this text go back to publication PMC10082768.

A word on the stoichiometry N: it is a count of units in the complex or per binding partner.

The target in experiment [1] is MUC2-C, the C-terminal part of the human MUC2 mucin, fully glycosylated (human). In words: SEC-SAXS; 25 °C; 25 mM HEPES pH 7.4, 100 mM NaCl, 10 mM CaCl2; beamline BM29, ESRF. Background: In gel filtration, larger molecules generally elute earlier.
Experiment [2] shares this target. In words: polyacrylamide gel electrophoresis, non-reduced against reduced; purified MUC2-C; band of around 300 kDa non-reduced, about 150 kDa after reduction.

“MUC2-C, the C-terminal part of the human MUC2 mucin, fully glycosylated (domain or fragment)”: the stoichiometry N in experiment [1] and in experiment [2] was 2 each time.
